This assay has as its target SARS-CoV-2 Spike ectodomain (pre-fusion, with proline mutations) (SARS-CoV-2) (UniProt P0DTC2).

In turn, EY6A IgG (antibody) yielded a plaque reduction neutralisation test (Oxford), SARS-CoV-2, ND50 of 30 µg/mL.
